Assay [1] addresses mCherry-(GGS)6-Rac1(1-188)-His8 (UniProt P63000). In words: membrane recruitment assay on supported lipid bilayers (TIRF microscopy). To be noted: mCherry-Rac1 Q61L/P29S-His8 anchored on bilayers containing 2% Ni2+-NTA-DGS lipid; parent: est. 0.72; read off a plot.
Assay [2] has as its target GST-Rac1(1-188) (Q61L/P29S) (UniProt P63000). As to the kind of experiment: other; GST-dimer model, KD,1. To be noted: complex; chains chain;chain;chain;chain;chain.
Assay [3] shares this target. As to the kind of experiment: pull-down; equilibrium pull-down (EPD): 0.1 μM ΔWRC230, 0.01 to 140 μM GST-Rac1(1-188) (Q61L/P29S), Glutathione Sepharose; 20 mM HEPES pH 7, 100 mM NaCl, 5% glycerol, 2 mM MgCl2, 5 mM β-mercaptoethanol, 0.05% Triton X100; 4°C, 30 min; unbound WRC in the supernatant quantified by SDS-PAGE; fits in DynaFit.
The target is the same in assay [4]. In words: other; GST-dimer model, KD,2 (second WRC). To be noted: complex; chains chain;chain;chain;chain;chain.
For assay [5], the target named is EGFP-tagged WRC, wild type (Sra1, Nap1, MBP-EGFP-HSPC300, MBP-Abi2(1-158), MBP-WAVE1(1-230)), Q7L576;Q9Y2A7;Q8WUW1;Q9NYB9;Q92558. As to the kind of experiment: membrane recruitment assay on supported lipid bilayers (TIRF microscopy). The note with it: WT EGFP-WRC; parent value is Rac1 WT loaded with GMPPNP (Rac1 WT GDP bar est. 0.045); parent: est. 0.23; read off a plot.

These results are taken from paper PMC5614565.

Regarding “EGFP-tagged WRC, wild type (Sra1, Nap1, MBP-EGFP-HSPC300, MBP-Abi2(1-158), MBP-WAVE1(1-230)) (from UniProt Q7L576;Q9Y2A7;Q8WUW1;Q9NYB9;Q92558) Y967A”, the response in assay [1] came to 0.12.

In turn, “ΔWRC230, wild type (Sra1, Nap1, HSPC300, MBP-Abi2(1-158), MBP-WAVE1(1-230)), Q7L576 1-1253; Q9Y2A7 1-1128; Q8WUW1 1-75; Q9NYB9 1-158; Q92558 1-230” returned a Kd in assay [2] of 67 nM. Further, in assay [3], the KD,A(D) (A Site of the D Site-bound WRC, sequential two-site model) stood at 262 nM; the KD,D (D Site, sequential two-site model) was 169 nM; the KD,D (D Site, single-site model) was 106 nM.

With “ΔWRC230 with Sra1 C179R (Sra1, Nap1, HSPC300, MBP-Abi2(1-158), MBP-WAVE1(1-230)), Q7L576 1-1253; Q9Y2A7 1-1128; Q8WUW1 1-75; Q9NYB9 1-158; Q92558 1-230”, the Kd in assay [2] was found to be 201 nM; in assay [4], 144 nM; in assay [3], 265 nM.

Regarding “ΔWRC230 with Sra1 Y967A (Sra1, Nap1, HSPC300, MBP-Abi2(1-158), MBP-WAVE1(1-230)), Q7L576 1-1253; Q9Y2A7 1-1128; Q8WUW1 1-75; Q9NYB9 1-158; Q92558 1-230”, in assay [3], the KD,A (A Site, first WRC, GST-dimer model) was 11500 nM; the KD,A (A Site, single-site model) turned out to be 10800 nM; the KD,A (A Site, two-site model) came out at 9600 nM; the KD,A’ (A Site of the second WRC, GST-dimer model) was 33 nM.

Regarding “mCherry-Rac1-His8 wild type (GMPPNP) Q61L; P29S”, in assay [5], the response came to 0.72.

Regarding “EGFP-tagged WRC, wild type (Sra1, Nap1, MBP-EGFP-HSPC300, MBP-Abi2(1-158), MBP-WAVE1(1-230)) (from UniProt Q7L576;Q9Y2A7;Q8WUW1;Q9NYB9;Q92558) C179R”, the response in assay [1] is 0.36.

For the substance “EGFP-tagged WRC, wild type (Sra1, Nap1, MBP-EGFP-HSPC300, MBP-Abi2(1-158), MBP-WAVE1(1-230)) (from UniProt Q7L576;Q9Y2A7;Q8WUW1;Q9NYB9;Q92558) S969F”, the response in assay [1] amounted to 0.8.
